Where two headings read alike, the source gives them in different places.
Key:
[1] = system: muscarinic receptor mediated airway resistance; assay: airway resistance (Penh) in naive mice, methacholine challenged; assay type: in vivo, BALB/c mice; settings: for dosage level sufficient for reduced airway responsiveness: intranasal once daily for three days
[2] = system: muscarinic receptor mediated airway resistance; assay type: in vivo, BALB/c mice; settings: Example 5, 5, 10 and 20 mg/ml carbachol

B1: DAS181: fusion protein comprising a catalytic domain of a sialidase, and an anchoring domain (SEQ ID NO:21) (protein)
chain: MGDHPQATPAPAPDASTELPASMSQAQHLAANTATDNYRIPAITTAPNGDLLISYDERPKDNGNGGSDAPNPNHIVQRRSTDGGKTWSAPTYIHQGTETGKKVGYSDPSYVVDHQTGTIFNFHVKSYDQGWGGSRGGTDPENRGIIQAEVSTSTDNGWTWTHRTITADITKDKPWTARFAASGQGIQIQHGPHAGRLVQQYTIRTAGGAVQAVSVYSDDHGKTWQAGTPIGTGMDENKVVELSDGSLMLNSRASDGSGFRKVAHSTDGGQTWSEPVSDKNLPDSVDNAQIIRAFPNAAPDDPRAKVLLLSHSPNPRPWSRDRGTISMSCDDGASWTTSKVFHEPFVGYTTIAVQSDGSIGLLSEDAHNGADYGGIWYRNFTMNWLGEQCGQKPAKRKKKGGKNGKNRRNRKKKNP
Question: For B1, which “difference in airway resistance between dose groups” value ([1]; Example 3, 0.06, 0.1, 0.6 mg/kg) is on record?
Answer: No difference was observed between the different dose groups

Question: What about the “airway resistance vs PBS” value ([1]; Example 3, 0.06, 0.1 or 0.6 mg/kg intranasal once daily for three days, 48 mg/ml Mch) of the same molecule?
Answer: significantly reduced airway resistance

Question: What about the “dosage level sufficient for reduced airway responsiveness” value ([1]; Example 3) of the same molecule?
Answer: ≤ 0.06 mg/kg

Question: What about the “airway resistance vs PBS control” value ([1]; Example 4, 0.6 mg/kg once daily for three days, 6, 12, 24 and 48 mg/ml Mch) of the same molecule?
Answer: significantly reduced airway resistance

Question: And the “airway resistance vs baseline” value ([1]; Example 4, 0.6 mg/kg, 3 and 6 mg/ml methacholine)?
Answer: did not increase airway resistance above baseline

Question: What about the “airway resistance vs baseline” value ([1]; Example 4, 0.6 mg/kg, 12, 24 and 48 mg/ml methacholine) of the same molecule?
Answer: increased airway resistance above baseline

Question: What about the “airway resistance in response to Mch challenge vs PBS” value ([1]; Example 7, 0.6 mg/kg, one day of treatment) of the same molecule?
Answer: no difference in airway resistance

Question: What about the “airway resistance vs PBS” value ([1]; Example 7, 0.6 mg/kg, three days of treatment, 24 and 48 mg/ml Mch) of the same molecule?
Answer: significantly reduced airway resistance

Question: What about the “airway resistance vs PBS” value ([1]; Example 7, 0.6 mg/kg, two days of treatment, 3, 6 and 48 mg/ml methacholine) of the same molecule?
Answer: not at 3, 6 and 48 mg/ml

Question: What about the “airway resistance vs PBS” value ([1]; Example 7, 0.6 mg/kg, two days of treatment, 12 and 24 mg/ml methacholine) of the same molecule?
Answer: appears to reduce airway resistance

Question: And the “difference in airway resistance between dose groups” value ([1]; Example 8, 0.0008, 0.004, 0.02, 0.1 mg/kg)?
Answer: No difference was observed between the different dose groups

Question: What about the “airway resistance vs PBS” value ([1]; Example 8, 0.0008, 0.004, 0.02 or 0.1 mg/kg once daily for three days, 24 and 48 mg/ml Mch) of the same molecule?
Answer: significantly reduced airway resistance

Question: What about the “dosage level sufficient for reduced airway responsiveness” value ([1]; Example 8) of the same molecule?
Answer: ≤ 0.0008 mg/kg

Question: What about the “average percentage change Penh (increase in airway resistance over baseline)” value ([1]; Example 9, 10 ng/kg once daily three days, 24 mg/ml Mch, PBS 550-560%) of the same molecule?
Answer: 525-530%

Question: And the “average percentage change Penh (increase in airway resistance over baseline)” value ([1]; Example 9, 0.1 μg/kg, 24 mg/ml Mch)?
Answer: 450%

Question: What about the “average percentage change Penh (increase in airway resistance over baseline)” value ([1]; Example 9, 1 μg/kg, 24 mg/ml Mch) of the same molecule?
Answer: 525%

Question: What about the “average percentage change Penh (increase in airway resistance over baseline)” value ([1]; Example 9, 10 μg/kg, 24 mg/ml Mch) of the same molecule?
Answer: 225%

Question: What about the “average percentage change Penh (increase in airway resistance over baseline)” value ([1]; Example 9, 0.1 mg/kg, 24 mg/ml Mch) of the same molecule?
Answer: 200%

Question: And the “airway resistance vs PBS” value ([1]; Example 9, all doses 10 ng/kg to 0.1 mg/kg, 24 mg/ml Mch)?
Answer: reduced airway resistance

Question: What about the “airway resistance in response to Mch” value ([1]; Example 9, dose levels of 0.01 or 0.1 mg/kg) of the same molecule?
Answer: significantly reduced airway resistance

Question: What about the “airway resistance vs PBS” value ([2]; 0.6 mg/kg once daily for three days) of the same molecule?
Answer: significantly reduced airway resistance

Question: And the “airway resistance vs baseline” value ([2]; 0.6 mg/kg)?
Answer: increased airway resistance above baseline
